Results: article doi:10.1101/2022.06.24.497451

Molecular target: SMC3CC/RAD21N complex (human)

| Substance | loss of ATPase activity compared to the WT complex when SMC3CC/RAD21N was added [%] |
| --- | --- |
| SMC1ACC-R57A/RAD21C complex | 10 |
| SMC1ACC-Δ58-62/RAD21C complex | 10 |
